We go through one substance from patent publication US20100266530A1.

The assay addresses N-terminal GFP-tagged tail-less hFcRn (ssECTM: signal sequence-GFP-ectodomain-transmembrane domain) stably expressed on HEK293 cells (human) [GFP: P42212]. Nature of the assay: flow cytometry on ssECTM cells at pH 7.5, 50 ug/ml hIgG-AF647, no competitor. (In flow cytometry, cells or beads pass a laser one at a time.)

Consider human IgG (hIgG) (antibody), for which the MFI came to 6 MFI.
